Experimental data from patent US20260049138A1 (Chugai, published 2026).

Target: T1, CD3ε homodimer protein (human, UniProt P07766 23-126, limits assumed)
T1 construct: also called CD3 (CD3ε)
Assay: SPR Biacore T200, CD3ε homodimer on chip;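 also: Light-chain single-residue variant antibodies injected over amine-coupled CD3ε homodimer on a CM4 chip at 25 °C, bound amount divided by that of the GLS3000-containing antibody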

T1 sequence (P07766 23-126 limits assumed): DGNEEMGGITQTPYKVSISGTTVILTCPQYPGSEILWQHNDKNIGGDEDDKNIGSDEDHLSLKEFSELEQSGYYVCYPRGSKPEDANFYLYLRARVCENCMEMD

Binder	ratio of amount bound vs unaltered GLS3000
GLS3000 N30K one-arm antibody (antibody, human IgG1, kappa, L234A L235A, N297A, name in Kabat numbering) heavy: QVQLVESGGGVVQPGRSLRLSCAASGFTFSNAWMHWVRQAPGKGLEWVAQIKAKSNNYATYYAESVKGRFTISRDDSKNSLYLQMNSLKTEDTAVYYCRYVHYGAYYGVDAWGQGTTVTVSSASTKGPSVFPLAPSSKSTSGGTAALGCLVKDYFPEPVTVSWNSGALTSGVHTFPAVLQSSGLYSLSSVVTVPSSSLGTQTYICNVNHKPSNTKVDKKVEPKSCDKTHTCPPCPAPEAAGGPSVFLFPPKPKDTLMISRTPEVTCVVVDVSHEDPEVKFNWYVDGVEVHNAKTKPREEQYASTYRVVSVLTVLHQDWLNGKEYKCKVSNKALPAPIEKTISKAKGQPREPQVYTLPPSRCELTKNQVSLSCAVKGFYPSDIAVEWESNGQPENNYKTTPPVLDSDGSFFLVSKLTVDKSRWQQGNVFSCSVMHEALHNHYTQKSLSLSPDYKDDDDK EPKSSDKTHTCPPCPAPELLGGPSVFLFPPKPKDTLMISRTPEVTCVVVDVSHEDPEVKFNWYVDGVEVHNAKTKPREEQYNSTYRVVSVLTVLHQDWLNGKEYKCKVSNKALPAPIEKTISKAKGQPREPQVCTLPPSRDELTKNQVSLWCLVKGFYPSDIAVEWESNGQPENNYKTTPPVLDSDGSFFLYSKLTVDKSRWQQGNVFSCSVMHEALHNRYTQKSLSLSP light: DIVMTQSPLSLPVTPGEPASISCRSSQSLVHSNRKTYLHWYQQKPGQAPRLLIYKVSNRFSGVPDRFSGSGSGTDFTLKISRVEAEDVGVYYCGQGTQVPYTFGQGTKLEIKRTVAAPSVFIFPPSDEQLKSGTASVVCLLNNFYPREAKVQWKVDNALQSGNSQESVTEQDSKDSTYSLSSTLTLSKADYEKHKVYACEVTHQGLSSPVTKSFNRGEC	1.65
GLS3000 N30R one-arm antibody (antibody, human IgG1, kappa, L234A L235A, N297A, name in Kabat numbering) heavy: QVQLVESGGGVVQPGRSLRLSCAASGFTFSNAWMHWVRQAPGKGLEWVAQIKAKSNNYATYYAESVKGRFTISRDDSKNSLYLQMNSLKTEDTAVYYCRYVHYGAYYGVDAWGQGTTVTVSSASTKGPSVFPLAPSSKSTSGGTAALGCLVKDYFPEPVTVSWNSGALTSGVHTFPAVLQSSGLYSLSSVVTVPSSSLGTQTYICNVNHKPSNTKVDKKVEPKSCDKTHTCPPCPAPEAAGGPSVFLFPPKPKDTLMISRTPEVTCVVVDVSHEDPEVKFNWYVDGVEVHNAKTKPREEQYASTYRVVSVLTVLHQDWLNGKEYKCKVSNKALPAPIEKTISKAKGQPREPQVYTLPPSRCELTKNQVSLSCAVKGFYPSDIAVEWESNGQPENNYKTTPPVLDSDGSFFLVSKLTVDKSRWQQGNVFSCSVMHEALHNHYTQKSLSLSPDYKDDDDK EPKSSDKTHTCPPCPAPELLGGPSVFLFPPKPKDTLMISRTPEVTCVVVDVSHEDPEVKFNWYVDGVEVHNAKTKPREEQYNSTYRVVSVLTVLHQDWLNGKEYKCKVSNKALPAPIEKTISKAKGQPREPQVCTLPPSRDELTKNQVSLWCLVKGFYPSDIAVEWESNGQPENNYKTTPPVLDSDGSFFLYSKLTVDKSRWQQGNVFSCSVMHEALHNRYTQKSLSLSP light: DIVMTQSPLSLPVTPGEPASISCRSSQSLVHSNRRTYLHWYQQKPGQAPRLLIYKVSNRFSGVPDRFSGSGSGTDFTLKISRVEAEDVGVYYCGQGTQVPYTFGQGTKLEIKRTVAAPSVFIFPPSDEQLKSGTASVVCLLNNFYPREAKVQWKVDNALQSGNSQESVTEQDSKDSTYSLSSTLTLSKADYEKHKVYACEVTHQGLSSPVTKSFNRGEC	1.86
GLS3000 N30P one-arm antibody (antibody, human IgG1, kappa, L234A L235A, N297A, name in Kabat numbering) heavy: QVQLVESGGGVVQPGRSLRLSCAASGFTFSNAWMHWVRQAPGKGLEWVAQIKAKSNNYATYYAESVKGRFTISRDDSKNSLYLQMNSLKTEDTAVYYCRYVHYGAYYGVDAWGQGTTVTVSSASTKGPSVFPLAPSSKSTSGGTAALGCLVKDYFPEPVTVSWNSGALTSGVHTFPAVLQSSGLYSLSSVVTVPSSSLGTQTYICNVNHKPSNTKVDKKVEPKSCDKTHTCPPCPAPEAAGGPSVFLFPPKPKDTLMISRTPEVTCVVVDVSHEDPEVKFNWYVDGVEVHNAKTKPREEQYASTYRVVSVLTVLHQDWLNGKEYKCKVSNKALPAPIEKTISKAKGQPREPQVYTLPPSRCELTKNQVSLSCAVKGFYPSDIAVEWESNGQPENNYKTTPPVLDSDGSFFLVSKLTVDKSRWQQGNVFSCSVMHEALHNHYTQKSLSLSPDYKDDDDK EPKSSDKTHTCPPCPAPELLGGPSVFLFPPKPKDTLMISRTPEVTCVVVDVSHEDPEVKFNWYVDGVEVHNAKTKPREEQYNSTYRVVSVLTVLHQDWLNGKEYKCKVSNKALPAPIEKTISKAKGQPREPQVCTLPPSRDELTKNQVSLWCLVKGFYPSDIAVEWESNGQPENNYKTTPPVLDSDGSFFLYSKLTVDKSRWQQGNVFSCSVMHEALHNRYTQKSLSLSP light: DIVMTQSPLSLPVTPGEPASISCRSSQSLVHSNRPTYLHWYQQKPGQAPRLLIYKVSNRFSGVPDRFSGSGSGTDFTLKISRVEAEDVGVYYCGQGTQVPYTFGQGTKLEIKRTVAAPSVFIFPPSDEQLKSGTASVVCLLNNFYPREAKVQWKVDNALQSGNSQESVTEQDSKDSTYSLSSTLTLSKADYEKHKVYACEVTHQGLSSPVTKSFNRGEC	0.31
GLS3000 N30M one-arm antibody (antibody, human IgG1, kappa, L234A L235A, N297A, name in Kabat numbering) heavy: QVQLVESGGGVVQPGRSLRLSCAASGFTFSNAWMHWVRQAPGKGLEWVAQIKAKSNNYATYYAESVKGRFTISRDDSKNSLYLQMNSLKTEDTAVYYCRYVHYGAYYGVDAWGQGTTVTVSSASTKGPSVFPLAPSSKSTSGGTAALGCLVKDYFPEPVTVSWNSGALTSGVHTFPAVLQSSGLYSLSSVVTVPSSSLGTQTYICNVNHKPSNTKVDKKVEPKSCDKTHTCPPCPAPEAAGGPSVFLFPPKPKDTLMISRTPEVTCVVVDVSHEDPEVKFNWYVDGVEVHNAKTKPREEQYASTYRVVSVLTVLHQDWLNGKEYKCKVSNKALPAPIEKTISKAKGQPREPQVYTLPPSRCELTKNQVSLSCAVKGFYPSDIAVEWESNGQPENNYKTTPPVLDSDGSFFLVSKLTVDKSRWQQGNVFSCSVMHEALHNHYTQKSLSLSPDYKDDDDK EPKSSDKTHTCPPCPAPELLGGPSVFLFPPKPKDTLMISRTPEVTCVVVDVSHEDPEVKFNWYVDGVEVHNAKTKPREEQYNSTYRVVSVLTVLHQDWLNGKEYKCKVSNKALPAPIEKTISKAKGQPREPQVCTLPPSRDELTKNQVSLWCLVKGFYPSDIAVEWESNGQPENNYKTTPPVLDSDGSFFLYSKLTVDKSRWQQGNVFSCSVMHEALHNRYTQKSLSLSP light: DIVMTQSPLSLPVTPGEPASISCRSSQSLVHSNRMTYLHWYQQKPGQAPRLLIYKVSNRFSGVPDRFSGSGSGTDFTLKISRVEAEDVGVYYCGQGTQVPYTFGQGTKLEIKRTVAAPSVFIFPPSDEQLKSGTASVVCLLNNFYPREAKVQWKVDNALQSGNSQESVTEQDSKDSTYSLSSTLTLSKADYEKHKVYACEVTHQGLSSPVTKSFNRGEC	0.8
GLS3000 N30Q one-arm antibody (antibody, human IgG1, kappa, L234A L235A, N297A, name in Kabat numbering) heavy: QVQLVESGGGVVQPGRSLRLSCAASGFTFSNAWMHWVRQAPGKGLEWVAQIKAKSNNYATYYAESVKGRFTISRDDSKNSLYLQMNSLKTEDTAVYYCRYVHYGAYYGVDAWGQGTTVTVSSASTKGPSVFPLAPSSKSTSGGTAALGCLVKDYFPEPVTVSWNSGALTSGVHTFPAVLQSSGLYSLSSVVTVPSSSLGTQTYICNVNHKPSNTKVDKKVEPKSCDKTHTCPPCPAPEAAGGPSVFLFPPKPKDTLMISRTPEVTCVVVDVSHEDPEVKFNWYVDGVEVHNAKTKPREEQYASTYRVVSVLTVLHQDWLNGKEYKCKVSNKALPAPIEKTISKAKGQPREPQVYTLPPSRCELTKNQVSLSCAVKGFYPSDIAVEWESNGQPENNYKTTPPVLDSDGSFFLVSKLTVDKSRWQQGNVFSCSVMHEALHNHYTQKSLSLSPDYKDDDDK EPKSSDKTHTCPPCPAPELLGGPSVFLFPPKPKDTLMISRTPEVTCVVVDVSHEDPEVKFNWYVDGVEVHNAKTKPREEQYNSTYRVVSVLTVLHQDWLNGKEYKCKVSNKALPAPIEKTISKAKGQPREPQVCTLPPSRDELTKNQVSLWCLVKGFYPSDIAVEWESNGQPENNYKTTPPVLDSDGSFFLYSKLTVDKSRWQQGNVFSCSVMHEALHNRYTQKSLSLSP light: DIVMTQSPLSLPVTPGEPASISCRSSQSLVHSNRQTYLHWYQQKPGQAPRLLIYKVSNRFSGVPDRFSGSGSGTDFTLKISRVEAEDVGVYYCGQGTQVPYTFGQGTKLEIKRTVAAPSVFIFPPSDEQLKSGTASVVCLLNNFYPREAKVQWKVDNALQSGNSQESVTEQDSKDSTYSLSSTLTLSKADYEKHKVYACEVTHQGLSSPVTKSFNRGEC	0.87
GLS3000 N30L one-arm antibody (antibody, human IgG1, kappa, L234A L235A, N297A, name in Kabat numbering) heavy: QVQLVESGGGVVQPGRSLRLSCAASGFTFSNAWMHWVRQAPGKGLEWVAQIKAKSNNYATYYAESVKGRFTISRDDSKNSLYLQMNSLKTEDTAVYYCRYVHYGAYYGVDAWGQGTTVTVSSASTKGPSVFPLAPSSKSTSGGTAALGCLVKDYFPEPVTVSWNSGALTSGVHTFPAVLQSSGLYSLSSVVTVPSSSLGTQTYICNVNHKPSNTKVDKKVEPKSCDKTHTCPPCPAPEAAGGPSVFLFPPKPKDTLMISRTPEVTCVVVDVSHEDPEVKFNWYVDGVEVHNAKTKPREEQYASTYRVVSVLTVLHQDWLNGKEYKCKVSNKALPAPIEKTISKAKGQPREPQVYTLPPSRCELTKNQVSLSCAVKGFYPSDIAVEWESNGQPENNYKTTPPVLDSDGSFFLVSKLTVDKSRWQQGNVFSCSVMHEALHNHYTQKSLSLSPDYKDDDDK EPKSSDKTHTCPPCPAPELLGGPSVFLFPPKPKDTLMISRTPEVTCVVVDVSHEDPEVKFNWYVDGVEVHNAKTKPREEQYNSTYRVVSVLTVLHQDWLNGKEYKCKVSNKALPAPIEKTISKAKGQPREPQVCTLPPSRDELTKNQVSLWCLVKGFYPSDIAVEWESNGQPENNYKTTPPVLDSDGSFFLYSKLTVDKSRWQQGNVFSCSVMHEALHNRYTQKSLSLSP light: DIVMTQSPLSLPVTPGEPASISCRSSQSLVHSNRLTYLHWYQQKPGQAPRLLIYKVSNRFSGVPDRFSGSGSGTDFTLKISRVEAEDVGVYYCGQGTQVPYTFGQGTKLEIKRTVAAPSVFIFPPSDEQLKSGTASVVCLLNNFYPREAKVQWKVDNALQSGNSQESVTEQDSKDSTYSLSSTLTLSKADYEKHKVYACEVTHQGLSSPVTKSFNRGEC	0.7
